Laboratory results: patent US20250333512A1 (PLANTVAX, published 2025)

B1: Nb PGT121 (antibody)
heavy: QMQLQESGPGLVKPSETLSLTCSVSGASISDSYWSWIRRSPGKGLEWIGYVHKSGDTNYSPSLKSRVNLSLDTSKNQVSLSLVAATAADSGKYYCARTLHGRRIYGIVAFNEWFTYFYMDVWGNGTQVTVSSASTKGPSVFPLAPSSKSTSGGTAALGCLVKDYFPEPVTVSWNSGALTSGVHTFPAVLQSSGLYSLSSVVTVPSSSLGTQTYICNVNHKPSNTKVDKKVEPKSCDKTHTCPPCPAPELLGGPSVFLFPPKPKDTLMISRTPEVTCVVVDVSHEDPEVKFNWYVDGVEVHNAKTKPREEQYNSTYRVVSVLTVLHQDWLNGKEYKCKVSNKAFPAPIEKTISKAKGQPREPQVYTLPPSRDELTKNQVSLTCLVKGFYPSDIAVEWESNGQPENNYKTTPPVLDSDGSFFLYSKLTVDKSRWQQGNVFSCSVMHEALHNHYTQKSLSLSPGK
light: SDISVAPGETARISCGEKSLGSRAVQWYQHRAGQAPSLIIYNNQDRPSGIPERFSGSPDSPFGTTATLTITSVEAGDEADYYCHIWDSRVPTKWVFGGGTTLTVLRTVAAPSVFIFPPSDEQLKSGTASVVCLLNNFYPREAKVQWKVDNALQSGNSQESVTEQDSKDSTYSLSSTLTLSKADYEKHKVYACEVTHQGLSSPVTKSFNRGEC
modifications: Plant-type N-glycan at heavy-chain N312 (EU N297); letters unchanged.
B2: Nb PGT121-LS (antibody)
heavy: QMQLQESGPGLVKPSETLSLTCSVSGASISDSYWSWIRRSPGKGLEWIGYVHKSGDTNYSPSLKSRVNLSLDTSKNQVSLSLVAATAADSGKYYCARTLHGRRIYGIVAFNEWFTYFYMDVWGNGTQVTVSSASTKGPSVFPLAPSSKSTSGGTAALGCLVKDYFPEPVTVSWNSGALTSGVHTFPAVLQSSGLYSLSSVVTVPSSSLGTQTYICNVNHKPSNTKVDKKVEPKSCDKTHTCPPCPAPELLGGPSVFLFPPKPKDTLMISRTPEVTCVVVDVSHEDPEVKFNWYVDGVEVHNAKTKPREEQYNSTYRVVSVLTVLHQDWLNGKEYKCKVSNKAFPAPIEKTISKAKGQPREPQVYTLPPSRDELTKNQVSLTCLVKGFYPSDIAVEWESNGQPENNYKTTPPVLDSDGSFFLYSKLTVDKSRWQQGNVFSCSVLHEALHSHYTQKSLSLSPGK
light: B1 light
modifications: Plant-type N-glycan (partly unoccupied) at heavy-chain N312 (EU N297); letters unchanged.

How the values were obtained:
Experiment in all cases: cell-based or functional assay
[1] = biological target: chimeric receptor containing a rhesus macaque FcγRI ectodomain and the CD3ζ intracellular signaling domain (rhesus macaque, UniProt A0A7G8YX43 16-293)
[2] = biological target: chimeric receptor containing a rhesus macaque FcγRIIA ectodomain and the CD3ζ intracellular signaling domain (rhesus macaque, UniProt A0A7G8YX83 34-216)
[3] = biological target: chimeric receptor containing a rhesus macaque FcγRIIB ectodomain and the CD3ζ intracellular signaling domain (rhesus macaque, UniProt A0A7G8YX88 43-217)
[4] = biological target: chimeric receptor containing a rhesus macaque FcγRIII ectodomain and the CD3ζ intracellular signaling domain (rhesus macaque, UniProt A3RFZ7 21-206)
Sequence of chimeric receptor containing a rhesus macaque FcγRIII ectodomain and the CD3ζ intracellular signaling domain (A3RFZ7 whole entry, change not shown, the tested form may be a part): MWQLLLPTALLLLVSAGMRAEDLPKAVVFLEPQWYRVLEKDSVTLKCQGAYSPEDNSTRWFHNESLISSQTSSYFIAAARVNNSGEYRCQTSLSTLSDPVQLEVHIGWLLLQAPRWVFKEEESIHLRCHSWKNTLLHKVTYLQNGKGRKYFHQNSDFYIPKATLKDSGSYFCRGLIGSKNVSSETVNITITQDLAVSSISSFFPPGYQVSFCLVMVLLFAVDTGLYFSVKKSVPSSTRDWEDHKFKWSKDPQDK

Binder | EC50 (IL-2 ELISA) [1] | EC50 (IL-2 ELISA) [2] | EC50 (IL-2 ELISA) [3] | EC50 (IL-2 ELISA) [4]
B1 | ~0.71 µg/mL | > 50 µg/mL | > 50 µg/mL | > 50 µg/mL
B2 | 1.2 µg/mL | > 50 µg/mL | > 50 µg/mL | > 50 µg/mL
